Several values for one entry are separate records, joined by “and”; a condition that tells them apart may be missing. Equal entries are not always repeated.
Tests used:
Experiment in all cases: Cytokine-stimulated phosphorylation in immunophenotypically defined cell populations from healthy donor BM (flow cytometry);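 on pERK S/N ratio: Phosphoprotein MFI normalized to lymphocyte MFI as internal negative control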;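 on pS6 S/N ratio: Phosphoprotein MFI normalized to lymphocyte MFI as internal negative control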
Format in all cases: cell-based, human
[1] = tested on: pS6; details: healthy donor BM, mean ± SD;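 on pS6 S/N ratio: Phosphoprotein MFI normalized to lymphocyte MFI as internal negative control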
Protocol: (§1) Bone marrow (BM) samples were collected in 7.5 mL Iscove's modified Dulbecco's medium (IMDM) supplemented with 100U penicillin, 0.01 mg/mL streptomycin, and 70 μg/mL heparin sodium salt from 10 patients undergoing hip replacement surgery, who were otherwise healthy. These patients were from a pool of surgery patients, age 49 to 77, and represented […] patients. […] These BM samples were rinsed twice with IMDM to release cells, filtered using a 100 μm Nylon cell strainer to remove marrow particles, and centrifuged for at RT fro 7 minutes at 200 g. The cell pellet was washed twice with sterile IMDM to remove traces of fat and re-suspended in IMDM to a concentration of 3×10^7 cells/mL.
(§2) To assess the signal transduction response after growth factor simulation, a series comprising two sets of tubes including about 3×10^6 cells/100 μL were incubated at 37° C. for 30 minutes. After this pre-incubation period, tubes with then processes with either a stimulant or inhibitor. […] To examine the effects of protein phosphorylation inhibition, tubes were incubated with an inhibitor cocktail comprising 100 μM/100 μL UO126, 1 μM/100 μL LY294002, and 1 μM/100 μL rapamycin. One unstimulated tube receiving no stimulant or inhibitor was processed to assess basal levels of phospho-protein expression. After stimulation the cells were immediately fixed in 10% formaldehyde solution at 37° C. Pre-labeling with CD13, CD16 and CD64 antibodies was carried out 20 minutes prior to formaldehyde fixation. After fixation, one set of tubes was permeabilized without methanol for pAKT, pERK and pS6 staining and the other for 80% methanol permeabilized for pSTAT3 and pSTAT5 staining. After permeablization, the cells were washed in PBS with 2% BSA and blocked by re-suspended in 75 μL of PBS comprising 25% heat inactivated normal mouse serum, 25% normal rabbit serum. To stain cells with fluorescent conjugated monoclonal antibodies, samples were incubated on ice for 45 minutes in 100 μL of an antibody staining solution including either: 1) CD15-Pacific Orange, CD34-Phycoerythrin-Texas Red, CD117-Phycoerythrin-Cyanin 5.5, CD45-Allophycocyanin-Alexa Fluor 750 (or CD45-Pacific Orange, in which case CD15-Pacific Orange was omitted), pS6-Pacific Blue, pERK-Alexa Fluor 488 and pAKT-Alexa Fluor 647 or 2) CD15-Pacific Orange, CD34-Phycoerythrin-Texas Red, CD117-Phycoerythrin-Cyanin 5.5, CD45-Allophycocyanin-Alexa Fluor 750 or CD45-Pacific Blue, pSTAT3-Alexa Fluor 488 and pSTAT5-Phycoerythrin. The stained cells were washed twice with ice cold PBS containing 2% BSA and centrifuged at 800 g for 6 minutes at 4° C. The supernatant was discarded and cells re-suspended in 250 μL of chilled wash buffer for data acquisition. Stained cells were examined using either GALIOS flow cytometer (Beckman Coulter) or CYAN ADP (Beckman Coulter) equipped with 488 nm, 405 nm and 635 nm lasers to detect the degree of fluorescence. Data were analyzed using FCS Express (De Novo Software, CA) analysis software.
(§3) Specific phosphoprotein expression of pERK, pS6, pAKT, pSTAT5, and pSTAT3 was examined in seven discrete phenotypically defined populations based on 7-color immunophenotyping (FIG. 1). The percent of responding (phosphorprotein positive) cells for each of these populations was determined from individual single parameter histograms based on a fixed integration region set on the inhibitor treated control at about 3% positives.

[2] = tested on: pERK; details: for pERK Percent (%) Responding Cells, Mean / pERK S/N ratio: healthy donor BM, mean ± SD;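 on pERK S/N ratio: Phosphoprotein MFI normalized to lymphocyte MFI as internal negative control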
Protocol: as §1, §2, §3

[3] = tested on: pSTAT5; details: healthy donor BM, mean ± SD
Protocol: as §1, §2, §3

[4] = tested on: pSTAT3; details: healthy donor BM, mean ± SD
Protocol: as §1, §2, §3

[5] = tested on: pAKT; details: for pAKT Percent (%) Responding Cells, Mean / pAKT S/N ratio: healthy donor BM, mean ± SD
Protocol: as §1, §2, §3

B1: FMS-Like Tyrosine Kinase 3 (FLT-3) ligand (protein, UniProt P49771 27-235, looked up)
Fms-related tyrosine kinase 3 …: TQDCSFQHSPISSDFAVKIRELSDYLLQDYPVTVASNLQDEELCGGLWRLVLAQRWMERLKTVAGSKMQGLLERVNTEIHFVTKCAFQPPPSCLRFVQTNISRLLQETSEQLVALKPWITRQNFSRCLELQCQPDSSTLPPPWSPRPLEATAPTAPQPPLLLLLLLPVGLLLLAAAWCLHWQRTRRRTPRPGEQVPPVPSPQDLLLVEH
[1]; CD34^+ (CD34^+/CD117^+ cells)
  pS6 Percent (%) Responding Cells, Mean: 68.8% and 68.8 ± 21.1%
  pS6 S/N ratio: 31.1 ± 26.0
[1]; CD117^+ (CD34^−/CD117^+ cells)
  pS6 Percent (%) Responding Cells, Mean: 36.1 ± 16.4%
  pS6 S/N ratio: 44.4 ± 44.4
[1]; G1, immature myeloid cells
  pS6 Percent (%) Responding Cells, Mean: 2.1 ± 1.5%
  pS6 S/N ratio: 3.3 ± 1.9
[1]; G2, intermediate myeloid cells
  pS6 Percent (%) Responding Cells, Mean: 2.5 ± 1.9%
  pS6 S/N ratio: 2.9 ± 1.8
[1]; G3, mature myeloid cells
  pS6 Percent (%) Responding Cells, Mean: 3.9 ± 2.7%
  pS6 S/N ratio: 3.6 ± 2.3
[1]; Mono, monocytes
  pS6 S/N ratio: 33.4 and 33.4 ± 30.5
[2]; CD34^+ (CD34^+/CD117^+ cells)
  pERK Percent (%) Responding Cells, Mean: 76.9% and 76.9 ± 11.0%
  pERK S/N ratio: 11.9 ± 3.6
[2]; CD117^+ (CD34^−/CD117^+ cells)
  pERK Percent (%) Responding Cells, Mean: 37.1 ± 8.8%
  pERK S/N ratio: 10.9 ± 2.9
[2]; G1, immature myeloid cells
  pERK Percent (%) Responding Cells, Mean: 3.3 ± 5.4%
  pERK S/N ratio: 2.9 ± 0.7
[2]; G2, intermediate myeloid cells
  pERK Percent (%) Responding Cells, Mean: 6.3 ± 11.2%
  pERK S/N ratio: 2.8 ± 0.6
[2]; G3, mature myeloid cells
  pERK Percent (%) Responding Cells, Mean: 9.1 ± 15.6%
  pERK S/N ratio: 3.6 ± 1.3
[2]; Mono, monocytes
  pERK S/N ratio: 12.8 and 12.8 ± 6.7
[2]; Table 7 comparison value, matches percent responding CD34^+ cells of Tables 1-5
  pERK, Normal Sample: 76.9
[3]; CD34^+ (CD34^+/CD117^+ cells)
  pSTAT5 Percent (%) Responding Cells, Mean: 16.1 ± 6.1%
  pSTAT5 S/N ratio: 1.9 ± 1.4
[3]; CD117^+ (CD34^−/CD117^+ cells)
  pSTAT5 Percent (%) Responding Cells, Mean: 5.7 ± 5.8%
  pSTAT5 S/N ratio: 2.1 ± 0.6
[3]; G1, immature myeloid cells
  pSTAT5 Percent (%) Responding Cells, Mean: 2.7 ± 2.5%
  pSTAT5 S/N ratio: 2.6 ± 0.5
[3]; G2, intermediate myeloid cells
  pSTAT5 Percent (%) Responding Cells, Mean: 2.0 ± 1.6%
  pSTAT5 S/N ratio: 2.7 ± 0.5
[3]; G3, mature myeloid cells
  pSTAT5 Percent (%) Responding Cells, Mean: 3.1 ± 1.0%
  pSTAT5 S/N ratio: 3.2 ± 0.7
[3]; Mono, monocytes
  pSTAT5 Percent (%) Responding Cells, Mean: 3.1 ± 1.9%
  pSTAT5 S/N ratio: 3.9 ± 4.9
[4]; CD34^+ (CD34^+/CD117^+ cells)
  pSTAT3 Percent (%) Responding Cells, Mean: 13.5 ± 9.4%
  pSTAT3 S/N ratio: 3.5 ± 3.3
[4]; CD117^+ (CD34^−/CD117^+ cells)
  pSTAT3 Percent (%) Responding Cells, Mean: 3.5 ± 2.2%
  pSTAT3 S/N ratio: 2.6 ± 0.6
[4]; G1, immature myeloid cells
  pSTAT3 Percent (%) Responding Cells, Mean: 2.7 ± 3.3%
  pSTAT3 S/N ratio: 3.4 ± 0.4
[4]; G2, intermediate myeloid cells
  pSTAT3 Percent (%) Responding Cells, Mean: 1.8 ± 1.4%
  pSTAT3 S/N ratio: 3.3 ± 0.6
[4]; G3, mature myeloid cells
  pSTAT3 Percent (%) Responding Cells, Mean: 5.3 ± 5.6%
  pSTAT3 S/N ratio: 3.7 ± 0.5
[4]; Mono, monocytes
  pSTAT3 Percent (%) Responding Cells, Mean: 4.8 ± 3.9%
  pSTAT3 S/N ratio: 2.6 ± 0.4
[5]; CD34^+ (CD34^+/CD117^+ cells)
  pAKT Percent (%) Responding Cells, Mean: 34.3% and 34.3 ± 19.4%
  pAKT S/N ratio: 7.2 ± 4.9
[5]; CD117^+ (CD34^−/CD117^+ cells)
  pAKT Percent (%) Responding Cells, Mean: 20.5 ± 28.3%
  pAKT S/N ratio: 2.8 ± 2.9
[5]; G1, immature myeloid cells
  pAKT Percent (%) Responding Cells, Mean: 3.0 ± 4.3%
  pAKT S/N ratio: 2.3 ± 1.1
[5]; G2, intermediate myeloid cells
  pAKT Percent (%) Responding Cells, Mean: 3.6 ± 5.0%
  pAKT S/N ratio: 2.4 ± 1.0
[5]; G3, mature myeloid cells
  pAKT Percent (%) Responding Cells, Mean: 3.8 ± 2.5%
  pAKT S/N ratio: 2.7 ± 1.3
[5]; Mono, monocytes
  pAKT Percent (%) Responding Cells, Mean: 21.5% and 21.5 ± 23.8%
  pAKT S/N ratio: 4.2 ± 3.0
[5]; Table 7 comparison value
  pAKT, Normal Sample: 76.9

Reference: patent publication US20130210034A1, “COMPLEX PHOSPHOPROTEIN ACTIVATION PROFILES” (BECKMAN COULTER, INC., priority 2005, published 2013)
